± gives the half width of the 95% confidence interval.
Tests used:
[1] = folding stability dG unfold from trypsin proteolysis; higher = more stable
Procedure, shortened: (§1)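 Unfolding free energy was derived, per protease or combined, against a sequence-predicted unfolded-state K50 and a shared folded-state K50, starting from K50 inferred by Bayesian fitting of sequencing counts. Digestion with trypsin and chymotrypsin was carried out on designed mini-proteins under 80 residues without cysteine in a PA-tagged cDNA display construct. Only designs with AlphaFold2 dimer inter-PAE above 15 were kept.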

[2] = folding stability dG unfold from chymotrypsin proteolysis; higher = more stable
Procedure, shortened: as §1

[3] = folding stability dG unfold (combined trypsin and chymotrypsin); higher = more stable
Procedure, shortened: as §1

## SAGGSAGGSAGGSITITTEPLPSGGRRVTVTLPGSSVVLELEFSPDETEEEVRAAVEAASAGGSAGGSAGGS [r10_825_JUSTAS]
[1]
  folding stability dG unfold: 1.47 ± 0.035 kcal/mol
[2]
  folding stability dG unfold: 2.12 ± 0.06 kcal/mol
[3]
  folding stability dG unfold: 1.93 ± 0.09 kcal/mol

## SAGGSAGGSAGGSITITWNPESGTVKIKPPNNKKEIEIPAENMTPSQIIDQAKDNGVEVSAGGSAGGSAGGS [r4_49_TrROS]
[1]
  folding stability dG unfold: -0.0527 ± 0.12 kcal/mol
[2]
  folding stability dG unfold: 1.39 ± 0.1 kcal/mol
[3]
  folding stability dG unfold: 0.935 ± 0.17 kcal/mol

## SAGGSAGGSAGGSIVIEVDTLEEAKKLAEKLNLKVTEVKEVDGKLYVKIEIKSPEELKKSAGGSAGGSAGGS [r10_218_TrROS_Hall]
[1]
  folding stability dG unfold: 0.204 ± 0.11 kcal/mol
[2]
  folding stability dG unfold: 2.002 ± 0.018 kcal/mol
[3]
  folding stability dG unfold: 1.53 ± 0.12 kcal/mol

## SAGGSAGGSAGGSKDERTLTLRLRVTTPIYGTDADGNPLEPIEVTKEYELTVTVPADLLSAGGSAGGSAGGS [r4_425_TrMRF]
[1]
  folding stability dG unfold: 1.18 ± 0.082 kcal/mol
[2]
  folding stability dG unfold: 2.69 ± 0.099 kcal/mol
[3]
  folding stability dG unfold: 2.1 ± 0.16 kcal/mol

## SAGGSAGGSAGGSKFLVKTSVEVFKNPVGGNRYGAKITTLAVNPDTNEVTLSESYLPLDLSAGGSAGGSAGG [r7_216_TrMRF]
[1]
  folding stability dG unfold: 0.114 ± 0.11 kcal/mol
[2]
  folding stability dG unfold: 0.842 ± 0.13 kcal/mol
[3]
  folding stability dG unfold: 0.62 ± 0.12 kcal/mol

## SAGGSAGGSAGGSKIEIEEENGELKITIEVDGKKYEITIPKDMTLEEALKKALEKLPGLSAGGSAGGSAGGS [r4_191_TrROS_Hall]
[1]
  folding stability dG unfold: 3.45 ± 0.69 kcal/mol
[2]
  folding stability dG unfold: 2.5 ± 0.087 kcal/mol
[3]
  folding stability dG unfold: 3.09 ± 0.18 kcal/mol

## SAGGSAGGSAGGSKIENIKDIERNPNPDGHYMITIPNGWQIVVRMDKNGKMEIEIVPLKSAGGSAGGSAGGS [r4_177_TrROS]
[1]
  folding stability dG unfold: 1.87 ± 0.076 kcal/mol
[2]
  folding stability dG unfold: 1.88 ± 0.039 kcal/mol
[3]
  folding stability dG unfold: 1.82 ± 0.15 kcal/mol

## SAGGSAGGSAGGSKKKKKKKKKKVVKLTVLIEKDGELYLVEIEFDKDGKIVSISVEKLPSAGGSAGGSAGGS [r4_192_TrROS_Hall]
[1]
  folding stability dG unfold: 2.12 ± 0.16 kcal/mol
[2]
  folding stability dG unfold: 4 ± 0.27 kcal/mol
[3]
  folding stability dG unfold: 3.27 ± 0.32 kcal/mol

## SAGGSAGGSAGGSKKKPPKKITLVVWNEETGELTKVEFDAETKEVKVEKVPIKPGDILLSAGGSAGGSAGGS [r4_409_TrROS_Hall]
[1]
  folding stability dG unfold: 1.18 ± 0.034 kcal/mol
[2]
  folding stability dG unfold: 0.946 ± 0.062 kcal/mol
[3]
  folding stability dG unfold: 0.988 ± 0.21 kcal/mol

## SAGGSAGGSAGGSKPEVIKLKVKKIKVKKKKYDKNGKLVEEEEKEITVETTVFVPKEDLSAGGSAGGSAGGS [r4_425_TrROS_Hall]
[1]
  folding stability dG unfold: -0.381 ± 0.18 kcal/mol
[2]
  folding stability dG unfold: 0.336 ± 0.14 kcal/mol
[3]
  folding stability dG unfold: 0.182 ± 0.17 kcal/mol

## SAGGSAGGSAGGSKPMYLFTVETENGKKLVIEAKSLEEALKALEKAGYKIKKVEVVKLPSAGGSAGGSAGGS [r4_213_TrROS_Hall]
[1]
  folding stability dG unfold: 3.36 ± 0.1 kcal/mol
[2]
  folding stability dG unfold: 3.996 ± 0.036 kcal/mol
[3]
  folding stability dG unfold: 3.81 ± 0.071 kcal/mol

## SAGGSAGGSAGGSKPNNFKNIPKPVFKFKITTTEWKKNKDGTWTPVSTSTAEVTVWSNTSAGGSAGGSAGGS [r4_288_TrMRF]
[1]
  folding stability dG unfold: 3.2 ± 0.11 kcal/mol
[2]
  folding stability dG unfold: 4.29 ± 0.1 kcal/mol
[3]
  folding stability dG unfold: 3.88 ± 0.21 kcal/mol

## SAGGSAGGSAGGSKTIEIELPGMSPEEIAAAIAEELGLDDVKITVERTEDGLLRVTIEVSAGGSAGGSAGGS [r4_408_TrROS_Hall]
[1]
  folding stability dG unfold: 1.57 ± 0.057 kcal/mol
[2]
  folding stability dG unfold: 1.81 ± 0.049 kcal/mol
[3]
  folding stability dG unfold: 1.76 ± 0.057 kcal/mol

## SAGGSAGGSAGGSKYEIEILKIEELEDDSYRITAKINIPEAGTTEEITLTVPKGVELKLSAGGSAGGSAGGS [r4_133_TrMRF]
[1]
  folding stability dG unfold: 1.21 ± 0.017 kcal/mol
[2]
  folding stability dG unfold: 1.21 ± 0.062 kcal/mol
[3]
  folding stability dG unfold: 1.23 ± 0.072 kcal/mol

## SAGGSAGGSAGGSLTFDGPDTKIEVYELDDDLLPVTIYTDSAPRTILVPPKEFLKLLASSAGGSAGGSAGGS [r4_346_TrMRF]
[1]
  folding stability dG unfold: 0.0915 ± 0.071 kcal/mol
[2]
  folding stability dG unfold: 0.449 ± 0.085 kcal/mol
[3]
  folding stability dG unfold: 0.367 ± 0.089 kcal/mol

## SAGGSAGGSAGGSMELKLKVVEKTETRSATPGEDEPLPGNSSVTYEGNTLTTTTLVLVPLSAGGSAGGSAGG [r7_506_JUSTAS]
[1]
  folding stability dG unfold: -0.728 ± 0.28 kcal/mol
[2]
  folding stability dG unfold: -0.736 ± 0.44 kcal/mol
[3]
  folding stability dG unfold: -0.72 ± 0.34 kcal/mol

## SAGGSAGGSAGGSMIVERKPAPGGPRVEITIEIPDPTSDVPIIKKLVAEVLEDGSIVKASAGGSAGGSAGGS [r4_448_JUSTAS]
[1]
  folding stability dG unfold: -0.193 ± 0.16 kcal/mol
[2]
  folding stability dG unfold: -0.525 ± 0.27 kcal/mol
[3]
  folding stability dG unfold: -0.205 ± 0.21 kcal/mol

## SAGGSAGGSAGGSMKIVEVELIEYDEETKEFVYVFRVRLEDGSERLIVITPDGEMRVVPSAGGSAGGSAGGS [r4_35_TrROS_Hall]
[1]
  folding stability dG unfold: 2.61 ± 0.064 kcal/mol
[2]
  folding stability dG unfold: 3.481 ± 0.031 kcal/mol
[3]
  folding stability dG unfold: 3.26 ± 0.055 kcal/mol

## SAGGSAGGSAGGSMKNVPVTVEGSSSVVPLPDGSPVTVTELTTTTLGENGEVSTSTTVVSSAGGSAGGSAGG [r11_817_JUSTAS]
[1]
  folding stability dG unfold: -0.614 ± 0.07 kcal/mol
[2]
  folding stability dG unfold: 1.34 ± 0.039 kcal/mol
[3]
  folding stability dG unfold: 0.905 ± 0.083 kcal/mol

## SAGGSAGGSAGGSMLKGKIISVDPKKGYAIIYIPGKKKLLIIKFDPDNTIVEIKEAPLSSAGGSAGGSAGGS [r4_192_TrMRF]
[1]
  folding stability dG unfold: 2.82 ± 0.35 kcal/mol
[2]
  folding stability dG unfold: 2.21 ± 0.14 kcal/mol
[3]
  folding stability dG unfold: 2.44 ± 0.33 kcal/mol

## SAGGSAGGSAGGSMPVKLDEIIDYDPKKKVLTVLLTHPDGSKSLVVVPGKSIEEIKEANSAGGSAGGSAGGS [r4_357_TrMRF]
[1]
  folding stability dG unfold: 0.314 ± 0.029 kcal/mol
[2]
  folding stability dG unfold: 0.709 ± 0.029 kcal/mol
[3]
  folding stability dG unfold: 0.648 ± 0.098 kcal/mol

Source: the supplement of paper PMC12764529
